According to article PMC3711439, “Mechanisms of in vivo binding site selection of the hematopoietic master transcription factor PU.1”:

Target: PU.1 (human, UniProt P17947 1-270)
Assay: MST; MST: 20 mM Tris-HCl pH 7.6, 1.5 mM MgCl2, 0.5 mM EGTA, 10% glycerol, 300 mM KCl, 10 mM DTT, 25 C; 50 nM Cy3-dsDNA, PU.1 1:1 dilutions from 23 uM
Conditions: protein: recombinant; tags: N-terminal His-tag; label: Cy3 on upper strand

B1: PU.1 motif oligo 4 (dsDNA)
DNA 1: ACGTCACTTCCTCTATACGT
DNA 2: ACGTATAGAGGAAGTGACGT
Kd: 413 ± 84 nM

B2: PU.1 motif oligo 31 (dsDNA)
DNA 1: ACGTCAGTTCCTCAAAACGT
DNA 2: ACGTTTTGAGGAACTGACGT
Kd: 599 ± 142 nM

B3: PU.1 motif oligo 32 (dsDNA)
DNA 1: ACGTAACTTCCTCCTAACGT
DNA 2: ACGTTAGGAGGAAGTTACGT
Kd: 464 ± 77 nM

B4: PU.1 motif oligo 33 (dsDNA)
DNA 1: ACGTAACTTCCCCAATACGT
DNA 2: ACGTATTGGGGAAGTTACGT
Kd: 611 ± 58 nM

B5: PU.1 motif oligo 34 (dsDNA)
DNA 1: ACGTCACTTCCTCCCCACGT
DNA 2: ACGTGGGGAGGAAGTGACGT
Kd: 690 ± 134 nM

B6: PU.1 motif oligo 35 (dsDNA)
DNA 1: ACGTTGCTTCCTCTTTACGT
DNA 2: ACGTAAAGAGGAAGCAACGT
Kd: 414 ± 92 nM

B7: PU.1 motif oligo 36 (dsDNA)
DNA 1: ACGTCCCTTCCTCTTTACGT
DNA 2: ACGTAAAGAGGAAGGGACGT
Kd: 682 ± 71 nM

B8: PU.1 motif oligo 37 (dsDNA)
DNA 1: ACGTCACTTCCTGCTAACGT
DNA 2: ACGTTAGCAGGAAGTGACGT
Kd: 794 ± 112 nM

B9: PU.1 motif oligo 38 (dsDNA)
DNA 1: ACGTCGCTTCCCCTTCACGT
DNA 2: ACGTGAAGGGGAAGCGACGT
Kd: 893 ± 116 nM

B10: PU.1 motif oligo 39 (dsDNA)
DNA 1: ACGTCGCTTCCTCTCCACGT
DNA 2: ACGTGGAGAGGAAGCGACGT
Kd: 983 ± 94 nM

B11: PU.1 motif oligo 40 (dsDNA)
DNA 1: ACGTCAGTTCCTTAAAACGT
DNA 2: ACGTTTTAAGGAACTGACGT
Kd: 808 ± 97 nM

B12: PU.1 motif oligo 5 (dsDNA)
DNA 1: ACGTCACTTCCTCTCTACGT
DNA 2: ACGTAGAGAGGAAGTGACGT
Kd: 270 ± 23 nM

B13: PU.1 motif oligo 41 (dsDNA)
DNA 1: ACGTCACTTCCTAAATACGT
DNA 2: ACGTATTTAGGAAGTGACGT
Kd: 620 ± 147 nM

B14: PU.1 motif oligo 42 (dsDNA)
DNA 1: ACGTCACTTCCGCCTCACGT
DNA 2: ACGTGAGGCGGAAGTGACGT
Kd: 656 ± 191 nM

B15: PU.1 motif oligo 43 (dsDNA)
DNA 1: ACGTCACTTCCTCTGGACGT
DNA 2: ACGTCCAGAGGAAGTGACGT
Kd: 822 ± 289 nM

B16: PU.1 motif oligo 44 (dsDNA)
DNA 1: ACGTCACTTCTCTTTTACGT
DNA 2: ACGTAAAAGAGAAGTGACGT
Kd: 770 ± 174 nM

B17: PU.1 motif oligo 45 (dsDNA)
DNA 1: ACGTCATTTCCTCCTTACGT
DNA 2: ACGTAAGGAGGAAATGACGT
Kd: 828 ± 8 nM

B18: PU.1 motif oligo 46 (dsDNA)
DNA 1: ACGTCACTTCCTCCAGACGT
DNA 2: ACGTCTGGAGGAAGTGACGT
Kd: 634 ± 12 nM

B19: PU.1 motif oligo 47 (dsDNA)
DNA 1: ACGTCGCTTCCTCCTCACGT
DNA 2: ACGTGAGGAGGAAGCGACGT
Kd: 757 ± 186 nM

B20: PU.1 motif oligo 48 (dsDNA)
DNA 1: ACGTCACTTCTGCTTTACGT
DNA 2: ACGTAAAGCAGAAGTGACGT
Kd: 600 ± 7 nM

B21: PU.1 motif oligo 49 (dsDNA)
DNA 1: ACGTCAGTTCCTCCTGACGT
DNA 2: ACGTCAGGAGGAACTGACGT
Kd: 929 ± 222 nM

B22: PU.1 motif oligo 50 (dsDNA)
DNA 1: ACGTCTCTTCCCCTCTACGT
DNA 2: ACGTAGAGGGGAAGAGACGT
Kd: 2120 ± 890 nM

B23: PU.1 motif oligo 6 (dsDNA)
DNA 1: ACGTGACTTCCTCTTTACGT
DNA 2: ACGTAAAGAGGAAGTCACGT
Kd: 190 ± 31 nM

B24: PU.1 motif oligo 51 (dsDNA)
DNA 1: ACGTCACTTCCTTGTCACGT
DNA 2: ACGTGACAAGGAAGTGACGT
Kd: 786 ± 41 nM

B25: PU.1 motif oligo 52 (dsDNA)
DNA 1: ACGTGCCTTCCTCTTTACGT
DNA 2: ACGTAAAGAGGAAGGCACGT
Kd: 887 ± 104 nM

B26: PU.1 motif oligo 53 (dsDNA)
DNA 1: ACGTCACTTCCATTCTACGT
DNA 2: ACGTAGAATGGAAGTGACGT
Kd: 4600 ± 2570 nM

B27: PU.1 motif oligo 54 (dsDNA)
DNA 1: ACGTCTCTTCCTTTCTACGT
DNA 2: ACGTAGAAAGGAAGAGACGT
Kd: 1700 ± 440 nM

B28: PU.1 motif oligo 55 (dsDNA)
DNA 1: ACGTCACTTCCCTCCCACGT
DNA 2: ACGTGGGAGGGAAGTGACGT
Kd: 1010 ± 192 nM

B29: PU.1 motif oligo 56 (dsDNA)
DNA 1: ACGTCGTTTCCTCTTTACGT
DNA 2: ACGTAAAGAGGAAACGACGT
Kd: 670 ± 145 nM

B30: PU.1 motif oligo 57 (dsDNA)
DNA 1: ACGTGAGTTCCTTTAAACGT
DNA 2: ACGTTTAAAGGAACTCACGT
Kd: 1660 ± 170 nM

B31: PU.1 motif oligo 58 (dsDNA)
DNA 1: ACGTCACTTCCCCAGGACGT
DNA 2: ACGTCCTGGGGAAGTGACGT
Kd: 1070 ± 229 nM

B32: PU.1 motif oligo 59 (dsDNA)
DNA 1: ACGTAACTTCTTCCTTACGT
DNA 2: ACGTAAGGAAGAAGTTACGT
Kd: 1620 ± 20 nM

B33: PU.1 motif oligo 60 (dsDNA)
DNA 1: ACGTCGCTTCCTTCCTACGT
DNA 2: ACGTAGGAAGGAAGCGACGT
Kd: 1895 ± 10 nM

B34: PU.1 motif oligo 7 (dsDNA)
DNA 1: ACGTCAGTTCCTCTTTACGT
DNA 2: ACGTAAAGAGGAACTGACGT
Kd: 222 ± 45 nM

B35: PU.1 motif oligo 61 (dsDNA)
DNA 1: ACGTATCTTCCTCATAACGT
DNA 2: ACGTTATGAGGAAGATACGT
Kd: 790 ± 77 nM

B36: PU.1 motif oligo 62 (dsDNA)
DNA 1: ACGTCTCTTCCTCCCTACGT
DNA 2: ACGTAGGGAGGAAGAGACGT
Kd: 1940 ± 1260 nM

B37: PU.1 motif oligo 63 (dsDNA)
DNA 1: ACGTCACTTCCACAGTACGT
DNA 2: ACGTACTGTGGAAGTGACGT
Kd: 1930 ± 220 nM

B38: PU.1 motif oligo 64 (dsDNA)
DNA 1: ACGTGACTTCCACAATACGT
DNA 2: ACGTATTGTGGAAGTCACGT
Kd: 1220 ± 350 nM

B39: PU.1 motif oligo 65 (dsDNA)
DNA 1: ACGTTTCTTCCTCTTCACGT
DNA 2: ACGTGAAGAGGAAGAAACGT
Kd: 872 ± 57 nM

B40: PU.1 motif oligo 66 (dsDNA)
DNA 1: ACGTCAGTTCTCTTTTACGT
DNA 2: ACGTAAAAGAGAACTGACGT
Kd: 2000 ± 40 nM

B41: PU.1 motif oligo 67 (dsDNA)
DNA 1: ACGTGACTTCCTTCACACGT
DNA 2: ACGTGTGAAGGAAGTCACGT
Kd: 1240 ± 370 nM

B42: PU.1 motif oligo 68 (dsDNA)
DNA 1: ACGTGACTTCTGCTTTACGT
DNA 2: ACGTAAAGCAGAAGTCACGT
Kd: 828 ± 51 nM

B43: PU.1 motif oligo 69 (dsDNA)
DNA 1: ACGTCAGTTCTGCTTTACGT
DNA 2: ACGTAAAGCAGAACTGACGT
Kd: 909 ± 28 nM

B44: PU.1 motif oligo 70 (dsDNA)
DNA 1: ACGTATCTTCCTCACTACGT
DNA 2: ACGTAGTGAGGAAGATACGT
Kd: 2020 ± 100 nM

B45: PU.1 motif oligo 8 (dsDNA)
DNA 1: ACGTCACTTCCCCTTAACGT
DNA 2: ACGTTAAGGGGAAGTGACGT
Kd: 441 ± 18 nM

B46: PU.1 motif oligo 71 (dsDNA)
DNA 1: ACGTTGCTTCCTCCCTACGT
DNA 2: ACGTAGGGAGGAAGCAACGT
Kd: 2200 ± 1640 nM

B47: PU.1 motif oligo 72 (dsDNA)
DNA 1: ACGTAATTTCCTCATCACGT
DNA 2: ACGTGATGAGGAAATTACGT
Kd: 1080 ± 251 nM

B48: PU.1 motif oligo 73 (dsDNA)
DNA 1: ACGTAACTTCTTCAAAACGT
DNA 2: ACGTTTTGAAGAAGTTACGT
Kd: 1520 ± 580 nM

B49: PU.1 motif oligo 74 (dsDNA)
DNA 1: ACGTCTCTTCCTTAAAACGT
DNA 2: ACGTTTTAAGGAAGAGACGT
Kd: 1150 nM

B50: PU.1 motif oligo 75 (dsDNA)
DNA 1: ACGTCAGTTCTGCATTACGT
DNA 2: ACGTAATGCAGAACTGACGT
Kd: 1190 ± 140 nM

B51: PU.1 motif oligo 9 (dsDNA)
DNA 1: ACGTCACTTCCTCTCAACGT
DNA 2: ACGTTGAGAGGAAGTGACGT
Kd: 676 ± 67 nM

B52: PU.1 motif oligo 10 (dsDNA)
DNA 1: ACGTCACTTCCTGTTTACGT
DNA 2: ACGTAAACAGGAAGTGACGT
Kd: 175 ± 16 nM
